Consider 12 molecules from patent US20210261665A1 (TAYU HUAXIA BIOTECH MEDICAL GROUP, published 2021).

Residue numbers refer to the chain shown, from its start. Names and notes keep the numbering of the source.

T1: mPD-1 protein (ELISA coat) (mouse, UniProt Q02242 25-167, limits assumed)
T1 sequence (looked up): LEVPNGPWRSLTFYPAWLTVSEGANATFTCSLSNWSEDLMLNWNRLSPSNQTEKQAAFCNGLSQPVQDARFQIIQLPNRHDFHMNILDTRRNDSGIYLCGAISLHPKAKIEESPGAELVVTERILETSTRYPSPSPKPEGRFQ

B1: TY101-01-09 (antibody, V domains shown)
VH: EVQLVESGGGLVQPGGSLRLSCAASGFTFSSYTMSWVRQAPGKGLEWVSYISHGGGDTYYADSVKGRFTISRDNSKNTLYLQMNSLRAEDTAVYYCARHSGYERGYYYVMDYWGQGTLVTVSS
VL: DIQLTQSPDSLSVSLGERATINCKASESVDYYGFSFLNWFQQKPGQPPKLLIYAASNRQSGVPDRFSGSGSGTDFTLTISSLQAEDVAVYFCQQSKEVPWTFGQGTKLEIKR
notes: Compared with isotype control hIgG4; also called TY101 clone TY101-01-09
B2: TY101-4G1 (antibody, V domains shown)
VH: B1 VH
VL: B1 VL
notes: also called TY101 clone TY101-4G1
B3: TY101-04-T3-05 (antibody, V domains shown)
VH: B1 VH
VL: B1 VL
notes: also called TY101 clone TY101-04-T3-05
B4: Variant 2 (antibody, V domains shown)
VH: B1 VH
VL: B1 VL with Q3V, L4M, S12A, Q59E, F91Y
notes: Humanized; VH variant a, VK variant b; Constant regions not spelled out; chimeric parent has human IgG4-S228P and human kappa; also called mutant combination 2
B5: Variant 8 (antibody, V domains shown)
VH: B1 VH with Q3K, V5L, A61P, Q115K, L118T
VL: DIVMTQSPDSLAVSLGERATINCKASESVDYYGFSFLNWFQQKPGQPPKLLIYAASNRESGVPDRFSGSGSGTDFTLTISSLQAEDVAVYYCQQSKEVPWTFGQGTKLEIK
notes: Humanized; VH variant c, VK variant b; Constant regions not spelled out; also called mutant combination 8
B6: Variant 5 (antibody, V domains shown)
VH: B1 VH with A61P
VL: B1 VL with Q3V, L4M, S12A, Q59E, F91Y
notes: Humanized; VH variant b, VK variant b; Constant regions not spelled out; chimeric parent has human IgG4-S228P and human kappa; also called mutant combination 5
B7: Variant 9 (antibody, V domains shown)
VH: B1 VH with Q3K, V5L, A61P, Q115K, L118T
VL: B5 VL with V3Q, M4L, A12S, E59Q, Y91F
notes: Humanized; VH variant c, VK variant c; Constant regions not spelled out; also called mutant combination 9
B8: Variant 7 (antibody, V domains shown)
VH: B1 VH with Q3K, V5L, A61P, Q115K, L118T
VL: B5 VL with A25S
notes: Humanized; VH variant c, VK variant a; Constant regions not spelled out; also called mutant combination 7
B9: Variant 1 (antibody, V domains shown)
VH: B1 VH
VL: B1 VL with Q3V, L4M, S12A, A25S, Q59E, F91Y
notes: Humanized; Constant regions not spelled out for the humanized antibodies; the chimeric parent has human IgG4-S228P and human kappa; also called mutant combination 1
B10: Variant 4 (antibody, V domains shown)
VH: B1 VH with A61P
VL: B1 VL with Q3V, L4M, S12A, A25S, Q59E, F91Y
notes: Humanized; VH variant b, VK variant a; Constant regions not spelled out; chimeric parent has human IgG4-S228P and human kappa; also called mutant combination 4
B11: Variant 6 (antibody, V domains shown)
VH: B1 VH with A61P
VL: B1 VL
notes: Humanized; VH variant b, VK variant c; Constant regions not spelled out; chimeric parent has human IgG4-S228P and human kappa; also called mutant combination 6
B12: chimeric parental antibody (antibody, human IgG4 S228P, kappa, V domains shown)
VH: EVKLVESGGGLVQPGGSLKLSCAASGFTFSSYTMSWIRQTPEKRLEWVAYISHGGGDTYYPDTVKGRFTISRDNAKNTLYLQMSSLKSEDTAMYYCARHSGYERGYYYVMDYWGQGTSVTVSS
VL: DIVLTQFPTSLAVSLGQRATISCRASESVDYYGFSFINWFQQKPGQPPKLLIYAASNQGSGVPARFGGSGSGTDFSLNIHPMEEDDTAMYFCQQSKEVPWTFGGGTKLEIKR
notes: also called chimeric antibody

T3 sequence (Q15116 25-288): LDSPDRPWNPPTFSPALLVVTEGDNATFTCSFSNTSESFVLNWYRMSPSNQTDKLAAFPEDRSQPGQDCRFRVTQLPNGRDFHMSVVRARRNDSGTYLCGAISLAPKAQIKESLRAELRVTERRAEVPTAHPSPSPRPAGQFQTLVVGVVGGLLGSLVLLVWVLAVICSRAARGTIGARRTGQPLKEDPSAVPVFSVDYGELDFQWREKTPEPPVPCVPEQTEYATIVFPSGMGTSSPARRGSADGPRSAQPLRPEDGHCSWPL
T5 sequence (Q15116 25-167 limits assumed): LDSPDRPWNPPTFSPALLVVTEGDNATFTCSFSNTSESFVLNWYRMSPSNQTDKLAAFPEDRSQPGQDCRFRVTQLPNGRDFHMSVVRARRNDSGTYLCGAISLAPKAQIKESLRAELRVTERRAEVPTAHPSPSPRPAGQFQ
Chain of hPD-1 protein (ELISA coat) (Q15116 25-167 limits assumed): as above

In one assay the target is T2, cynomolgus monkey PD-1 on cells (cynomolgus monkey, UniProt B0LAJ3 25-288).
T2 construct: also called cPD-1; CHOK1-cPD-1
T2 sequence (B0LAJ3 entry or part of it limits assumed): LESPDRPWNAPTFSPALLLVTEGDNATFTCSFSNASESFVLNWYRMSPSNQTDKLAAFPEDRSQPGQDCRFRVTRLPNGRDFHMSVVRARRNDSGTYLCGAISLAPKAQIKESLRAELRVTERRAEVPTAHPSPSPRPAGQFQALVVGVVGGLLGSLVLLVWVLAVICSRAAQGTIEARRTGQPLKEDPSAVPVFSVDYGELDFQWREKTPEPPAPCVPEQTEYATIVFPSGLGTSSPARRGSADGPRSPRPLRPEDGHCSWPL
As to the kind of experiment: flow cytometry on CHOK1-cPD-1 cells. (In flow cytometry, cells or beads pass a laser one at a time.)
With B1, the EC50 came to 1.13 nM and the “Max MFI” value stood at 21100.
Regarding B2, the EC50 was 1.46 nM and the “Max MFI” value is 20700.
For B3 the same measures were 1.19 nM and 22100.

The next assay concerns the target T3, human PD-1 on cells (human, UniProt Q15116 25-288).
T3 construct: whole, on cells; also called hPD-1; CHO/hPD-1
Nature of the assay: flow cytometry on CHOK1-hPD-1 cells.
In the case of B1, the concentration for a half-maximal effect (EC50) was determined as 0.78 nM and the “Max MFI” value came out at 23200.
For B2 the same measures were 0.94 nM and 23700.
For B3 the same measures were 0.87 nM and 23900.

A further assay addresses hPD-1 protein (ELISA coat) (human, UniProt Q15116 25-167, limits assumed). Nature of the assay: ELISA against hPD-1 ECD-Fc protein (plate coat). As to the method:
(§1) The bindings of the antibodies to hPD-1 and the cross-reactivity to mPD-1 proteins were tested by ELISA. A serial dilution of test antibodies were added to ELISA plates pre-coated with 1 μg/ml hPD-1 or mPD-1. HRP conjugated goat anti-human IgG or goat anti-mouse IgG antibody was then added, followed by the addition of substrate Tetramethylbenzidine (TMB) and quantification with a SpectraMax Plus 384 Microplate Reader (Molecular Device, LLC., Sunnyvale, Calif.) at 450 nm wavelength.
For orientation: ELISA stands for enzyme-linked immunosorbent assay.
Take B1: the 50% effective concentration (EC50) stood at 0.13 nM and the “Max OD450” value turned out to be 3.01.
As to B2, it took 0.15 nM to reach a half-maximal effect (EC50) and the “Max OD450” value was 3.01.
For B3 the same measures were 0.14 nM and 3.03.

The next assay concerns the target T1, mPD-1 protein (ELISA coat). Nature of the assay: ELISA against mPD-1 ECD-Fc protein (plate coat). As to the method: as §1
As for B1, the “Max OD450” value was 0.71 and the binding result is on record as “no binding (tested: 100 nM)”.
For B2, the “Max OD450” value turned out to be 1.33 and the binding result was “no binding (tested: 100 nM)”.
With B3, the “Max OD450” value turned out to be 0.92 and the binding result is listed as “no binding (tested: 100 nM)”.

The target of the next assay is T4, hPD-1 mIg fusion protein (human; mouse, UniProt Q15116 25-170).
T4 construct: extracellular domain; not shown: CH2-CH3 domain of mouse IgG2a heavy chain (plasmid pmIgG)
T4 sequence (Q15116 25-170): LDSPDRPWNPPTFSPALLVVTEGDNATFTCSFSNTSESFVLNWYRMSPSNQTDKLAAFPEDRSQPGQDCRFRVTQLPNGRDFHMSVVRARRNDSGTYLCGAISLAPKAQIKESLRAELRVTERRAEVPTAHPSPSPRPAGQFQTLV
Nature of the assay: SPR Biacore T100, hPD-1mIg immobilised by amine coupling, antibody as analyte. As to the method:
Binding affinity and kinetics determination of the humanized antibodies: The binding affinity and kinetics of the humanized PD-1 mAbs interact with hPD-1 protein was assessed with Biacore T100 (GE Healthcare Life Sciences). […] Nine different concentrations were tested for each sample. Detailed binding kinetic parameters (association rate, Ka, dissociation rate, Kd, and affinity constant, KD) can be determined by full kinetic analysis.
For orientation: SPR reads the build-up and loss of mass on a sensor chip optically.
For the molecule B4, the Kd was 0.363 nM, the koff was determined as 7.64e-05 s⁻¹ and the kon worked out at 210000 M⁻¹ s⁻¹.
For B5, the Kd is 0.358 nM, the off-rate constant (koff) was 7.95e-05 s⁻¹ and the kon was 222000 M⁻¹ s⁻¹.
For B6 the same measures were 0.329 nM, 6.94e-05 s⁻¹ and 211000 M⁻¹ s⁻¹.
The molecule B7 had a Kd of 0.123 nM, a dissociation rate constant (koff) of 3.2e-05 s⁻¹ and a kon of 259000 M⁻¹ s⁻¹.
On to B8, for which the affinity, expressed as Kd, was 0.291 nM; the koff is 6.48e-05 s⁻¹; the kon was 218000 M⁻¹ s⁻¹.
In turn, B9 displayed a Kd of 0.293 nM, a koff of 6.15e-05 s⁻¹ and a kon of 210000 M⁻¹ s⁻¹.
Turning to B10, the Kd was 0.338 nM, the koff stood at 6.29e-05 s⁻¹ and the kon was approximately 186000 M⁻¹ s⁻¹.
Consider B11, for which the Kd is 0.0898 nM, the koff is 2.23e-05 s⁻¹ and the kon was determined as 248000 M⁻¹ s⁻¹.
The molecule B12 came in with a Kd of 0.0989 nM, a koff of 2.85e-05 s⁻¹ and a kon of 288000 M⁻¹ s⁻¹.

In another assay the target is T3, human PD-1 on cells. Nature of the assay: cell based RBA (flow cytometry): blocking of Biotin-hPD-L1 binding to CHOK1-hPD-1 cells. As to the method:
(§2) The cells were then incubated with Alexa 488 labeled Streptavidin and analyzed using a FACSCanto II.
In turn, B1 showed an IC50 of 1.15 nM and an Inhibition rate of 99.5%.
The molecule B2 registered an IC50 of 1.47 nM and an Inhibition rate of 99.5%.
B3 registered a concentration for half-maximal inhibition (IC50) of 1.3 nM and an Inhibition rate of 99.5%.

The next assay deals with T3, human PD-1 on cells. As to the kind of experiment: cell based RBA (flow cytometry): blocking of Biotin-hPD-L2 binding to CHOK1-hPD-1 cells. As to the method:
as §2
With B1, the IC50 was determined as 1.76 nM and the Inhibition rate stood at 95.4%.
B2: the IC50 turned out to be 2.33 nM and the Inhibition rate turned out to be 94.7%.
Take B3: the IC50 stood at 1.52 nM and the Inhibition rate came out at 95.3%.

Another assay has as its target T5, Biotin-hPD-1 (human, UniProt Q15116 25-167, limits assumed, biotin label, site not stated). As to the kind of experiment: competitive ELISA: competitive Ab 15 µg/ml with Biotin-hPD-1; coating Ab Nivolumab 1 µg/ml. As to the method:
(§3) A serial dilution of competing antibodies and Biotin-hPD-1 were added to ELISA plates pre-coated with 1 μg/ml a test antibody. HRP conjugated streptavidin was then added, followed by the addition of substrate TMB and quantification with a SpectraMax Plus 384 Microplate Reader at 450 nm wavelength.
With B1, the “Inhibition (%)” value came to 93%.
Regarding B2, the “Inhibition (%)” value came out at 94%.
Turning to B3, the “Inhibition (%)” value amounted to 94%.

In the next assay the target is T5, Biotin-hPD-1. Nature of the assay: competitive ELISA: competitive Ab 15 µg/ml with Biotin-hPD-1; coating Ab TY101-4G1 1 µg/ml. As to the method: as §3
For B1, the “Inhibition (%)” value was found to be 95%.
As for B2, the “Inhibition (%)” value worked out at 95%.
On to B3, for which the “Inhibition (%)” value stood at 95%.

The target in a further assay is T5, Biotin-hPD-1. Nature of the assay: competitive ELISA: competitive Ab 15 µg/ml with Biotin-hPD-1; coating Ab TY101-01-09 1 µg/ml. As to the method: as §3
For B1, the “Inhibition (%)” value was found to be 94%.
In the case of B2, the “Inhibition (%)” value was determined as 94%.
Turning to B3, the “Inhibition (%)” value was 94%.

The target of a further assay is T5, Biotin-hPD-1. Nature of the assay: competitive ELISA: competitive Ab 15 µg/ml with Biotin-hPD-1; coating Ab Pembrolizumab 1 µg/ml. As to the method:
as §3
Regarding B1, the “Inhibition (%)” value came out at 93%.
With B2, the “Inhibition (%)” value is 94%.
Consider B3, for which the “Inhibition (%)” value is 94%.

In a further assay the target is T5, Biotin-hPD-1. Nature of the assay: competitive ELISA: competitive Ab 15 µg/ml with Biotin-hPD-1; coating Ab TY101-04-T3-05 1 µg/ml. As to the method:
as §3
Consider B1, for which the “Inhibition (%)” value worked out at 94%.
Regarding B2, the “Inhibition (%)” value is 94%.
Consider B3, for which the “Inhibition (%)” value is 95%.

The next assay deals with T6, Human PD-1 ECD protein (human, UniProt Q15116 25-170).
T6 construct: extracellular domain; also called hPD-1; recombinant hPD-1
T6 sequence (Q15116 25-170): as above
As to the kind of experiment: SPR, Biacore T200, hPD-1 ECD immobilised at the low level (60 RU), antibody as analyte, 1:1 fit [lower left]. As to the method: (§4) Human PD-1 ECD protein was immobilized on CMS sensor chip for different length of time to achieve low immobilization level (at 60 RU) in flow cell 3 and high immobilization level (960 RU) in flow cell 4. […] After signals of both the reference (flow cell 1) and the zero concentrations being subtracted from that of samples, binding kinetics was calculated using Biacore T200 evaluation software version 1.0 and a 1:1 binding model for curve fitting.
Regarding B3, binding was put at a Kd of 0.132 nM, the koff was 1.89e-05 s⁻¹ and the on-rate (kon) was determined as 143000 M⁻¹ s⁻¹.

The next assay has as its target T6, Human PD-1 ECD protein. As to the kind of experiment: SPR, Biacore T200, hPD-1 ECD immobilised at the high level (960 RU), antibody as analyte, 1:1 fit; kd and KD printed as '*', no visible dissociation over 1500 s [lower right]. As to the method:
as §4
B3 displayed a kon of 210000 M⁻¹ s⁻¹.

By EC50 is commonly meant the concentration needed to bring the measured effect to its halfway point. As usually defined, the Kd is the equilibrium constant for the complex coming apart. As a reminder, the koff is the rate constant with which the complex falls apart. For orientation: kon means the second-order rate constant of association. By IC50 is commonly meant the concentration that inhibits the measured activity by half.
